According to article PMC7337906:

Target: T1, Tof1(613-728) minimal;Csm3(48-157) internal_change (Chaetomium thermophilum;Chaetomium thermophilum) (UniProt G0S825+Q2H3R6)
T1 sequence 1: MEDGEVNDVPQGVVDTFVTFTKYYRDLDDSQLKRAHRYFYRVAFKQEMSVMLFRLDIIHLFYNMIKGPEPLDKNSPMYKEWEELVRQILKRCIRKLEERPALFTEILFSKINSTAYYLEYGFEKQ
T1 sequence 2: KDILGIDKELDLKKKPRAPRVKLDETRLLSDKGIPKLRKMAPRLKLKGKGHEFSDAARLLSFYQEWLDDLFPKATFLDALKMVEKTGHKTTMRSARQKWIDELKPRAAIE
Experiment: EMSA
Conditions: HBS-200 (20 mM HEPES pH 7.5, 200 mM NaCl, 1 mM TCEP) + 10% glycerol, 50 nM DNA, 30 min on ice; 6% polyacrylamide tris-glycine gel

## GTAGTTTGTACTGGTGACGA (double strand) [dsDNA 20 bp]
  binding signal (fold weaker than P1+P2): 2
